In the supplement of paper PMC10567573 one finds protein stability index data, which are given here for 5 proteins.

The nature of the data set: protein stability index of a GFP-peptide fusion (GPS, HEK-293T) (PSI 1-6); higher = more stable. Particulars: c terminus: native.
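Note: lentivirally expressed fusion library, cells FACS-sorted into six equal-sized GFP/DsRed ratio bins, PSI computed from sequencing read fractions per bin weighted by bin number.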

B1: PSMB5 addE (peptide)
chain: DGWIRVSSDNVADLHEKYSGSTPE
Regarding B1, the protein stability index (parent: NP_002788.1) came to 4.

B2: SNF8 addE (peptide)
chain: LPALFTDLYSQEITAEEAREALPE
Take B2: the protein stability index (parent: NP_009172.2) came to 5.12.

B3: BEX2 addE (peptide)
chain: HSLRAVSTDPPHHDHHDEFCLMPE
B3: the protein stability index (parent: NP_116010.1) was 4.74.

B4: POLD2 addE (peptide)
chain: CQPISFSGFGAEDDDLGGLGLGPE
On to B4, for which the protein stability index (parent: NP_006221.1) was 2.57.

B5: TRPA1 addE (peptide)
chain: EQRNSRWNTVLRAVKAKTHHLEPE
B5: the protein stability index (parent: NP_015628.1) was found to be 4.66.
